# Experimental data from PMC2844151.
# T1: Mycobacterium tuberculosis cAMP receptor protein (Rv3676) (Mycobacterium tuberculosis), P9WMH3
# T1 chain: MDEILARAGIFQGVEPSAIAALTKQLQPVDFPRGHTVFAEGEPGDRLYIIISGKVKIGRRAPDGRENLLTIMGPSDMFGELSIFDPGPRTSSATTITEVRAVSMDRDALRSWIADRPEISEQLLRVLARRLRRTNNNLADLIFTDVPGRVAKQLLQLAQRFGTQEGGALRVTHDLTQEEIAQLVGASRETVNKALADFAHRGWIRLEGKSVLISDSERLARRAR
# Biological target: T1, Mycobacterium tuberculosis cAMP …
# Assay: cross-linking
# Conditions: remark: other sources report otherwise
binder,measurement,value
"Mycobacterium tuberculosis cAMP receptor protein (Rv3676), P9WMH3 1-224 (natural protein) MDEILARAGIFQGVEPSAIAALTKQLQPVDFPRGHTVFAEGEPGDRLYIIISGKVKIGRRAPDGRENLLTIMGPSDMFGELSIFDPGPRTSSATTITEVRAVSMDRDALRSWIADRPEISEQLLRVLARRLRRTNNNLADLIFTDVPGRVAKQLLQLAQRFGTQEGGALRVTHDLTQEEIAQLVGASRETVNKALADFAHRGWIRLEGKSVLISDSERLARRAR",stoichiometry N,2
